{"source": "paper PMC4851618", "about": "“Structural dynamics of a methionine γ-lyase for calicheamicin biosynthesis: Rotation of the conserved tyrosine stacking with pyridoxal phosphate” (Structural Dynamics, 2016)", "proteins": {"B1": {"name": "CalE6, PLP-dependent methionine γ-lyase from Micromonospora echinospora (D7G variant, selenomethionine labeled) (enzyme, UniProt Q8KNG3 1-381, looked up)", "chain": "MSGMRFGTRLVHGGRRPSAGTGDVVPPIHVSTTYERRAQDEPRYFYGRGENPTREELEECLAGLERAPFATVFSSGQAAAATLLSLVRPGQCVVSTDDVYAGTDGLFDLAARQGVRVRYADLTTPEGIAAALAEPDLALVWIETPTNPLLTVVDVAEVSRRAHERGARVVVDNTFASPVLQQPLALGADVSLYSTTKSIAGHADVLGGALVYRDADLHAAVRAYRTTAGNVPGALDCFLVRRGLHTLSLRVHRQVATARVLVERLRASPVVGAVHYPGLPEHPQHAVVKAQMSAPGAIVSFDYLGGPAERLLDRFTLFTCGVSLGGVHSLVECPALMTHRPLSAEARARRGIGESLIRLSVGIEDPQDLAEDLSRALAGGT", "modifications": "selenomethionine in place of methionine; Lys 197 bound covalently to PLP (Schiff base, residue LLP 197)", "notes": "The printed fusion scheme (ENLYFQ/SNA-TARGET) leaves SNA before the protein after TEV cleavage; The forward primer begins the target with GTG (AGC GGT ATG CGC TTC GAC follow), so the first residue behind SNA may be Val, not Met; Crystallised with 1 mM PLP; also called CalE6-MES complex; CalE6 holoenzyme; source: E. coli BL21(DE3), selenomethionine labeled, purified (Ni-NTA, TEV cleavage, …)"}}, "biological_target": "the molecule itself", "test": "crystal structure; sitting drop, 11 mg/ml protein with 1 mM PLP, 12% w/v PEG 20000, 0.1 M MES pH 6.5, 289 K; SAD, 2.10 Å, space group I222; quaternary assembly calculated by PISA"}
{"protein": "B1", "values": [{"measurement": "stoichiometry N", "result": 4}]}
